Laboratory results taken from patent US20240261333A1 (published 2024).

Columns and labels:
Test in all cases: co-IP with anti-FLAG, mass spectrometry; lysate of cells with N-FLAG B3GNT2
[1] = biological target: T1, CD70 (human, UniProt P32970 1-193)
T1 construct: also called NP_001243.1
T1 sequence (looked up): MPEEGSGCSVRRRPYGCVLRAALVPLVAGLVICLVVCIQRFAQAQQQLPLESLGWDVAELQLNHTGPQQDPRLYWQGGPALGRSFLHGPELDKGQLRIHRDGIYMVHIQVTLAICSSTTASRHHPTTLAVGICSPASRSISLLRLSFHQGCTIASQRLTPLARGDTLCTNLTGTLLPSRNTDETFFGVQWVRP
Procedure: (§1) Cells were plated in 10-cm cell culture dishes and grown to 60-80% confluency. For each condition, two biological replicates were harvested for co-IP. Cells were washed with PBS and 4 mL of lysis buffer (20 mM HEPES, 1% Triton X-100, 150 mM NaCl, 1 mM EDTA, and 10% glycerol) containing protease inhibitor cocktail was added. Cells were scraped and lysate was incubated at 4° C. under rotary agitation for 1 h. Lysate was centrifuged at 14,000×g for 10 min at 4° C. Supernatant was transferred to a new tube and an aliquot was taken as the input. […] For Western blots, 10 μg/mL Chicken Anti-FLAG (Aves labs ET-DY100) and IgY control (R&D Systems AB-101-C) antibodies were biotinylated (Thermo Fisher Scientific 90407) and added to the respective conditions. Lysates with antibodies were incubated at 4° C. under rotary agitation overnight. For each mL of lysate, 50 μL of Pierce Protein A/G Magnetic Beads (Mass spectrometry; Thermo Fisher Scientific 88803) or Pierce Streptavidin Magnetic Beads (Western blot; Thermo Fisher Scientific 88817) was washed twice with lysis buffer. Lysates with antibodies were added to the beads and incubated at 4° C. under rotary agitation for 4 h. Beads were washed with lysis buffer 3 times and resuspended in lysis buffer for storage.
(§2) Magnetic beads were resuspended in 100 mM Tris pH 7.8, reduced, alkylated and digested with trypsin at 37° ° C. overnight. This solution was subjected to solid phase extraction to concentrate the peptides and remove unwanted reagents followed by injection onto a Shimadzu HPLC with fraction collector. Eight fractions were collected and after concentration were injected on a Waters NanoAcquity HPLC equipped with a self-packed Aeris 3 μm C18 analytical column 0.075 mm by 20 cm, (Phenomenex). Peptides were eluted using standard reverse-phase gradients. The effluent from the column was analyzed using a Thermo Orbitrap Elite mass spectrometer (nanospray configuration) operated in a data dependent manner for 54 minutes. The resulting fragmentation spectra were correlated against the known database using Proteome Discover 1.4 (Thermo Fisher Scientific).

[2] = biological target: T2, HADHA (human, UniProt P40939 37-763)
T2 construct: also called NP_000173.2
T2 sequence (P40939 37-763 limits assumed): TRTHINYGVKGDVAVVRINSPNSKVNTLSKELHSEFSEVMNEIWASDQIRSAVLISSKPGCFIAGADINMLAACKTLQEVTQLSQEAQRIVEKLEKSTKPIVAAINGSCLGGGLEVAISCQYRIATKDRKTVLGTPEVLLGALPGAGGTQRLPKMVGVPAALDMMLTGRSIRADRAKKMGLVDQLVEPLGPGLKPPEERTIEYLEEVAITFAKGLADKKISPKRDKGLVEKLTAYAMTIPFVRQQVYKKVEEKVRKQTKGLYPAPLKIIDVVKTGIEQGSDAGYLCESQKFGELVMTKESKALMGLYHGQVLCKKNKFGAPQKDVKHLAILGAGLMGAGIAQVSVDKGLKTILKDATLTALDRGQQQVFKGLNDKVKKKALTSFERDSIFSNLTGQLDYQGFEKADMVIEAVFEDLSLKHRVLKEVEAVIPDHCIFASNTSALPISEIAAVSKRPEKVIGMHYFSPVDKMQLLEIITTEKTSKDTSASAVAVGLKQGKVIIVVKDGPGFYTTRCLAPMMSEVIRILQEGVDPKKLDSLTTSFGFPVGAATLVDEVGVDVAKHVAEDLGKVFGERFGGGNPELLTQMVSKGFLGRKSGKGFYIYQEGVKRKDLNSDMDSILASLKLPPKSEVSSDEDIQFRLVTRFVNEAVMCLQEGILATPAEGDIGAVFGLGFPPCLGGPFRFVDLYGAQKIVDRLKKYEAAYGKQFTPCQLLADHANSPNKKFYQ
Procedure: as §1, §2

[3] = biological target: RPL26 (human, UniProt P61254 1-145)
Procedure: as §1, §2

[4] = biological target: T3, STAU2 (human, UniProt Q9NUL3 1-570, limits assumed)
T3 construct: also called NP_001157852.1 (+4)
T3 sequence (looked up): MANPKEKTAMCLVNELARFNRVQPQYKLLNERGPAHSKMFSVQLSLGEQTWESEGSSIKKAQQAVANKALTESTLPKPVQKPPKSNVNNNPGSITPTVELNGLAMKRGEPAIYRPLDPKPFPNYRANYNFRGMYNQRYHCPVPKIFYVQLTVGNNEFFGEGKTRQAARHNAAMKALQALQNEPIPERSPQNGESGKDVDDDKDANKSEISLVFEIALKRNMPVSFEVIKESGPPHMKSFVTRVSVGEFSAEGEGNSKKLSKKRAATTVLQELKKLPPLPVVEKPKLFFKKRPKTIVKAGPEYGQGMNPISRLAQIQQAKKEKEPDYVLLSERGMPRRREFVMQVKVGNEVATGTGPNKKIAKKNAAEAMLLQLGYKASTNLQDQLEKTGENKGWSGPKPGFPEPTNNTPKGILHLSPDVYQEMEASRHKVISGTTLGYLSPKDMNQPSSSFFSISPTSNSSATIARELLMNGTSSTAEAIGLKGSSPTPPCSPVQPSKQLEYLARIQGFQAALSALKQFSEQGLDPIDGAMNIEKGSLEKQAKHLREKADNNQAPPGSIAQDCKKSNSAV
Procedure: as §1, §2

[5] = biological target: T4, IPO13 (human, UniProt O94829 1-963)
T4 construct: also called NP_055467.3
T4 sequence (looked up): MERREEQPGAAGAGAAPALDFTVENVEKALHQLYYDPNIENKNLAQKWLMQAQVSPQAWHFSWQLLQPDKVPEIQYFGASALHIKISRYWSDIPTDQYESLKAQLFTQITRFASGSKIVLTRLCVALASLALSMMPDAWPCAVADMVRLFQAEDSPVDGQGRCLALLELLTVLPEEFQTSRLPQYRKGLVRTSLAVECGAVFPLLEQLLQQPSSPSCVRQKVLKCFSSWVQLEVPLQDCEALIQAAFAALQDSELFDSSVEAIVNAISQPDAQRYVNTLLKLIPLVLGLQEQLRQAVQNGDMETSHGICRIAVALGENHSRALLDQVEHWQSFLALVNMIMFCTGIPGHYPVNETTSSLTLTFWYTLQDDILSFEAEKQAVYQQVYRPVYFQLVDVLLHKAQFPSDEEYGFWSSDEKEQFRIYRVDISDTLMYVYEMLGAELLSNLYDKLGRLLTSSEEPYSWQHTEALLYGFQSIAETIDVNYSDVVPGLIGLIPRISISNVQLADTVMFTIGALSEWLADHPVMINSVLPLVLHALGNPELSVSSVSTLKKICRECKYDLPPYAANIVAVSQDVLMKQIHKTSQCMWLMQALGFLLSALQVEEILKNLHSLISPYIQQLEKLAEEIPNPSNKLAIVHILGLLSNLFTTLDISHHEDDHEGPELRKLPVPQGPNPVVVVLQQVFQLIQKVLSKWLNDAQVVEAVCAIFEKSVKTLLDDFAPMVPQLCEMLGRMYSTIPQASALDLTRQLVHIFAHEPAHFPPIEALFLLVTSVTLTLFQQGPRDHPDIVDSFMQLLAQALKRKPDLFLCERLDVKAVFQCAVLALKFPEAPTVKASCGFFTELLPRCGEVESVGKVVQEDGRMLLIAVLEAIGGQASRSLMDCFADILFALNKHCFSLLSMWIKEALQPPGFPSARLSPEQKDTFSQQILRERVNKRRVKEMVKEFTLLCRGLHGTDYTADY
Procedure: as §1, §2

[6] = biological target: T5, CTHRC1 (human, UniProt Q96CG8-3 1-229, limits assumed)
T5 construct: also called NP_001243028.1 (+1)
T5 sequence (Q96CG8 other isoform, or with tags, fused parts or gaps limits assumed): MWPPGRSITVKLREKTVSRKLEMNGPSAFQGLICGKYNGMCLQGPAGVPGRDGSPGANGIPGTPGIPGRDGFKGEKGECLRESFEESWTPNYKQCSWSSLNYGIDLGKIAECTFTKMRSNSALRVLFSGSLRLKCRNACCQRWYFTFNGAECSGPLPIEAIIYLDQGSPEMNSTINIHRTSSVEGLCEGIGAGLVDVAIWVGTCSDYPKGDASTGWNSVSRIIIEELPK
Procedure: as §1, §2

- co-IP mass spectrometry count [1]: 0
- co-IP mass spectrometry count [2]: 0
- co-IP mass spectrometry count [3]: 7
- co-IP mass spectrometry count [4]: 0
- co-IP mass spectrometry count [5]: 0
- co-IP mass spectrometry count [6]: 0
B1: N-terminal FLAG tagged B3GNT2 (enzyme, human, UniProt Q9NY97 1-397, looked up)
chain: MSVGRRRIKLLGILMMANVFIYFIMEVSKSSSQEKNGKGEVIIPKEKFWKISTPPEAYWNREQEKLNRQYNPILSMLTNQTGEAGRLSNISHLNYCEPDLRVTSVVTGFNNLPDRFKDFLLYLRCRNYSLLIDQPDKCAKKPFLLLAIKSLTPHFARRQAIRESWGQESNAGNQTVVRVFLLGQTPPEDNHPDLSDMLKFESEKHQDILMWNYRDTFFNLSLKEVLFLRWVSTSCPDTEFVFKGDDDVFVNTHHILNYLNSLSKTKAKDLFIGDVIHNAGPHRDKKLKYYIPEVVYSGLYPPYAGGGGFLYSGHLALRLYHITDQVHLYPIDDVYTGMCLQKLGLVPEKHKGFRTFDIEEKNKNNICSYVDLMLVHSRKPQEMIDIWSQLQSAHLKC
notes: Bait of the co-IP; pulled down with mouse anti-FLAG (Millipore Sigma F3165) from cell lysate; also called N-FLAG B3GNT2; N-term FLAG; not shown: N-terminal FLAG tag
